Experimental data taken from the Immune Epitope Database (IEDB).
pKd: −log10 of the molar value. One block for each sequence: values may come before it.

How the values were obtained:
[1] = biological target: HLA-B*08:01; test: IEDB peptide-MHC binding, purified MHC/competitive/radioactivity; filed as Kd, often an IC50 or EC50 that approximates it; ≥ and ≤ were set here for values at or beyond the usual limits of such assays
[2] = biological target: HLA-B*40:01; test: as above
[3] = biological target: HLA-B*07:02; test: as above
[4] = biological target: HLA-B*35:01; test: as above
[5] = biological target: HLA-B*51:01; test: as above
[6] = biological target: HLA-B*53:01; test: as above
[7] = biological target: HLA-B*54:01; test: as above
[8] = biological target: HLA-B*15:01; test: as above
[9] = biological target: HLA-A*02:12; test: IEDB peptide-MHC binding, purified MHC/direct/fluorescence; filed as Kd, often an IC50 or EC50 that approximates it; ≥ and ≤ were set here for values at or beyond the usual limits of such assays; conditions: source organism: Mycobacterium tuberculosis str. Haarlem
[10] = biological target: HLA-A*69:01; test: as above; conditions: source organism: Mycobacterium tuberculosis
[11] = biological target: HLA-B*44:02; test: IEDB peptide-MHC binding, purified MHC/competitive/radioactivity; filed as Kd, often an IC50 or EC50 that approximates it; ≥ and ≤ were set here for values at or beyond the usual limits of such assays
[12] = biological target: HLA-B*44:03; test: as above
[13] = biological target: HLA-A*02:01; test: as above
[14] = biological target: HLA-A*02:06; test: as above; conditions: source organism: Dengue virus 4 Philippines/H241/1956
[15] = biological target: HLA-A*32:01; test: as above
[16] = biological target: HLA-A*03:01; test: IEDB peptide-MHC binding, purified MHC/competitive/fluorescence; filed as Kd, often an IC50 or EC50 that approximates it; ≥ and ≤ were set here for values at or beyond the usual limits of such assays
[17] = biological target: HLA-A*26:01; test: IEDB peptide-MHC binding, purified MHC/competitive/radioactivity; filed as Kd, often an IC50 or EC50 that approximates it; ≥ and ≤ were set here for values at or beyond the usual limits of such assays
[18] = biological target: HLA-A*30:02; test: as above
[19] = biological target: HLA-A*01:01; test: as above
[20] = biological target: HLA-A*68:01; test: as above; conditions: source organism: Dengue virus 3 Martinique/1243/1999
[21] = biological target: HLA-A*29:02; test: as above; conditions: source organism: Mammarenavirus choriomeningitidis
[22] = biological target: HLA-A*30:01; test: as above; conditions: source organism: Mammarenavirus choriomeningitidis
[23] = biological target: HLA-A*26:01; test: IEDB peptide-MHC binding, purified MHC/competitive/fluorescence; filed as Kd, often an IC50 or EC50 that approximates it; ≥ and ≤ were set here for values at or beyond the usual limits of such assays; conditions: source organism: Homo sapiens
[24] = biological target: HLA-A*69:01; test: as above; conditions: source organism: Homo sapiens
[25] = biological target: HLA-B*27:03; test: as above; conditions: source organism: Homo sapiens
[26] = biological target: HLA-B*46:01; test: as above; conditions: source organism: Homo sapiens
[27] = biological target: HLA-B*51:01; test: as above; conditions: source organism: Homo sapiens
[28] = biological target: HLA-B*57:01; test: as above; conditions: source organism: Homo sapiens
[29] = source organism: Vaccinia virus WR
[30] = source organism: Dengue virus 2 Jamaica/1409/1983
[31] = source organism: SARS coronavirus Tor2
[32] = source organism: Triticum aestivum
[33] = source organism: Dengue virus 1 Singapore/S275/1990
[34] = source organism: Lassa virus Josiah
[35] = source organism: Dengue virus 4 Philippines/H241/1956
[36] = source organism: Mammarenavirus whitewaterense
[37] = source organism: Dengue virus 1 Brazil/97-11/1997
[38] = source organism: Mammarenavirus juninense
[39] = source organism: Mammarenavirus lassaense
[40] = source organism: Dengue virus 4 Dominica/814669/1981
[41] = source organism: Dengue virus 3 Martinique/1243/1999
[42] = source organism: Mammarenavirus choriomeningitidis

Sequence: SPMGKLTFF
pKd [1, 29]: 6.58

Sequence: WELVDRERNL
pKd [2, 30]: 6.94

Sequence: IPSLFIESSI
pKd [3, 29]: 6.17 | pKd [4, 29]: ≤ 4.16 | pKd [5, 29]: 5.72 | pKd [6, 29]: 5.70 | pKd [7, 29]: 6.37

Sequence: TQVPFCSHHF
pKd [8, 30]: 8.63

Sequence: LPIDKCSRII
pKd [3, 31]: 5.85 | pKd [4, 31]: 5.59 | pKd [5, 31]: 6.17 | pKd [6, 31]: 6.22 | pKd [7, 31]: 5.94

Sequence: CPASKKESVI
pKd [3, 29]: 8.15 | pKd [4, 29]: ≤ 4.16 | pKd [5, 29]: 5.03 | pKd [6, 29]: 7.03 | pKd [7, 29]: 5.62

Sequence: LSASVFYRG
pKd [8, 29]: 6.53

Sequence: GLLDVTDNV
pKd [9]: 8.52 | pKd [10]: 6.31

Sequence: LPFHRWHTM
pKd [3, 31]: 8.08 | pKd [4, 31]: 8.15 | pKd [5, 31]: 7.95 | pKd [6, 31]: 7.00 | pKd [7, 31]: 6.56

Sequence: VPYNMRVIHF
pKd [3, 31]: 6.83 | pKd [4, 31]: 5.84 | pKd [5, 31]: 5.25 | pKd [6, 31]: 6.16 | pKd [7, 31]: 6.30

pKd [3, 32]: 5.23 | pKd [4, 32]: 5.22 | pKd [5, 32]: 6.11 | pKd [6, 32]: 5.41 | pKd [7, 32]: ≤ 4.59
Sequence: IPEQSQCQAI

Sequence: VEMGEAAGIF
pKd [2, 30]: 5.94 | pKd [11, 30]: 7.41 | pKd [12, 30]: 6.23

Sequence: SLGCKPLTM
pKd [1, 33]: 6.77

Sequence: SKKTRISDL
pKd ([1]; source organism: Cowpox virus): 8.56

Sequence: FRRLRKGSI
pKd [1, 29]: 8.52

Sequence: SEGIFSPSEL
pKd [2, 33]: 8.25 | pKd [11, 33]: 7.18 | pKd [12, 33]: 7.11

Sequence: AIKLGFKSL
pKd [1, 29]: 7.38

Sequence: LIALSVLAVL
pKd [13, 34]: 5.56

Sequence: NEGIMAVGL
pKd [2, 35]: 5.65 | pKd [12, 35]: 5.81

Sequence: RVIEVLQRA
pKd ([13]; source organism: HIV-1 M:B_MN): 7.60

Sequence: VPAAIMMIL
pKd [3, 29]: ≤ 4.11 | pKd [4, 29]: 4.73 | pKd [5, 29]: ≤ 4.11 | pKd [6, 29]: 4.71 | pKd [7, 29]: ≤ 4.11

Sequence: APTGGVVKI
pKd [3, 36]: 5.75 | pKd [4, 36]: 5.03 | pKd [5, 36]: ≤ 4.24 | pKd [6, 36]: 4.98 | pKd [7, 36]: ≤ 4.11

Sequence: FIMIVGGLV
pKd ([13]; source organism: HIV-1 M:B_MN): 6.42

Sequence: IQRTVFFVL
pKd [14]: 7.91 | pKd [8, 35]: 8.29

Sequence: YLLSLFSTL
pKd [1, 29]: 8.40

Sequence: LMTGTLAVFL
pKd [1, 37]: 5.77

Sequence: SLQQRLEDL
pKd [1, 29]: 6.80

Sequence: GEMCEDTVTY
pKd [2, 35]: 6.04 | pKd [11, 35]: 7.45 | pKd [12, 35]: 6.98

pKd [3, 32]: 6.23 | pKd [4, 32]: ≤ 4.06 | pKd [5, 32]: 5.67 | pKd [6, 32]: ≤ 4.06 | pKd [7, 32]: ≤ 4.69
Sequence: QPFPQPQL

Sequence: SMFTLRHII
pKd [15, 29]: 7.08 | pKd [1, 29]: 8.74

Sequence: CPAVAVHDF
pKd [3, 31]: 5.79 | pKd [4, 31]: 7.84 | pKd [5, 31]: 6.62 | pKd [6, 31]: 7.56 | pKd [7, 31]: 5.13

Sequence: VPLPCQLMYA
pKd [3, 29]: 5.13 | pKd [4, 29]: 5.63 | pKd [5, 29]: 6.21 | pKd [6, 29]: 6.34 | pKd [7, 29]: 9.87

Sequence: LETLLLLTLL
pKd [2, 30]: 7.00

Sequence: IENLEYTVVV
pKd [2, 35]: 6.80

Sequence: IILAHFLYK
pKd ([16]; source organism: Bacillus anthracis str. A0488): 7.92

Sequence: AMIELCGAF
pKd [8, 29]: 9.47

Sequence: MAVELFQTI
pKd [3, 38]: 5.14 | pKd [4, 38]: 7.21 | pKd [5, 38]: 8.07 | pKd [6, 38]: 8.16 | pKd [7, 38]: 6.73

pKd ([16]; source organism: Escherichia coli O139:H28 str. E24377A): 7.56
Sequence: CLLNYSGLK

Sequence: KIWGRKSWPL
pKd [1, 33]: 6.42

Sequence: LLLKERGLK
pKd ([16]; source organism: Vibrio vulnificus CMCP6): 7.53

Sequence: LAKKSYVVF
pKd ([8]; source organism: Vaccinia virus Copenhagen): 7.01

pKd [13, 32]: 7.24
Sequence: VLQQSTYQL

Sequence: YLMLLFAAM
pKd [1, 29]: 6.86

Sequence: FPYIMGSVEL
pKd [3, 39]: 6.62 | pKd [4, 39]: 7.91 | pKd [5, 39]: 6.43 | pKd [6, 39]: 7.10 | pKd [7, 39]: 6.81

Sequence: QIAMTDTTPF
pKd [8, 37]: 8.15

Sequence: SLLRKFLYC
pKd [1, 29]: 6.15

Sequence: ALPRNMVIT
pKd [13, 34]: 4.90

Sequence: YLRTKPASA
pKd [1, 29]: 8.83

Sequence: AVFKMSPGY
pKd [17, 35]: 5.72 | pKd [18, 35]: 7.09 | pKd [8, 35]: 7.84

Sequence: LMGFRNSAL
pKd [1, 29]: 5.96

Sequence: LMYADDTAGW
pKd [8, 40]: 7.38 | pKd [6, 40]: 7.34

Sequence: MTIDLDPVIY
pKd [19, 41]: 5.52 | pKd [17, 41]: 8.25 | pKd [18, 41]: ≤ 4.60 | pKd [20]: 7.92 | pKd [8, 41]: 8.27 | pKd [4, 41]: 7.61

Sequence: FLLSLVEFF
pKd [8, 29]: 9.09

pKd ([13]; source organism: Homo sapiens): 8.08
Sequence: FLDEFMEAV

Sequence: HINKLFSVF
pKd [15, 29]: 6.04 | pKd [8, 29]: 9.04

Sequence: TTDVKAAVI
pKd [19, 42]: 6.02 | pKd [17, 42]: ≤ 4.11 | pKd [21]: 4.98 | pKd [22]: ≤ 4.14 | pKd [18, 42]: ≤ 4.63 | pKd [15, 42]: ≤ 4.11

Sequence: EKEENLVNSL
pKd [1, 30]: 5.74

Sequence: LGKKKTPRM
pKd [1, 30]: 6.42

pKd [3, 32]: 6.26 | pKd [4, 32]: 8.03 | pKd [5, 32]: 5.86 | pKd [6, 32]: 6.59 | pKd [7, 32]: ≤ 4.39
Sequence: QPFPQPQLPY

Sequence: EEMFKKRNL
pKd [2, 41]: 5.20 | pKd [11, 41]: 7.29 | pKd [12, 41]: 6.32

Sequence: LEKASLIEV
pKd [2, 41]: 5.99 | pKd [11, 41]: ≤ 4.11

Sequence: NVFKAMETF
pKd [8, 29]: 7.64

pKd [23]: ≤ 4.70 | pKd [24]: ≤ 4.70 | pKd [25]: ≤ 4.70 | pKd [26]: ≤ 4.70 | pKd [27]: ≤ 4.70 | pKd [28]: ≤ 4.70
Sequence: KMFTYLMES

Sequence: NRRKRSVTM
pKd [1, 37]: 8.17

Sequence: LVRHYFRYI
pKd [8, 29]: 6.80

Sequence: LEADYVESM
pKd [8, 29]: 6.36

Sequence: LNRRRRTAG
pKd [1, 30]: 6.13

Sequence: QMANGIALGL
pKd [8, 41]: 6.72

Sequence: WELVDKERNL
pKd ([2]; source organism: Dengue virus 2 Peru/IQT2913/1996): 6.65
